In IntAct's records for PubMed 20531392:

B1: Peroxisomal biogenesis factor 19 (Homo sapiens), P40855 (parent)
chain: MAAAEEGCSVGAEADRELEELLESALDDFDKAKPSPAPPSTTTAPDASGPQKRSPGDTAKDALFASQEKFFQELFDSELASQATAEFEKAMKELAEEEPHLVEQFQKLSEAAGRVGSDMTSQQEFTSCLKETLSGLAKNATDLQNSSMSEEELTKAMEGLGMDEGDGEGNILPIMQSIMQNLLSKDVLYPSLKEITEKYPEWLQSHRESLPPEQFEKYQEQHSVMCKICEQFEAETPTDSETTQKARFEMVLDLMQQLQDLGHPPKELAGEMPPGLNFDLDALNLSGPPGASGEQCLIM
B2: Peroxisomal biogenesis factor 19 (Homo sapiens), P40855 (parent)
chain: B1 chain
partner: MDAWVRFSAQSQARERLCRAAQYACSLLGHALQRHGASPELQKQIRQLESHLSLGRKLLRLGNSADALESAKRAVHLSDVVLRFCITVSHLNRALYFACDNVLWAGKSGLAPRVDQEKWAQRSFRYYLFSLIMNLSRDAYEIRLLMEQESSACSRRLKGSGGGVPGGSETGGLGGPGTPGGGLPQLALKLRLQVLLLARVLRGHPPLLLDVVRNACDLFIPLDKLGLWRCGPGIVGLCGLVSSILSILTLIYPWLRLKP

Variants of: B1
Details: with pex13_human PEX13, Q92968
Chain of pex13_human PEX13, Q92968 (Q92968 whole entry): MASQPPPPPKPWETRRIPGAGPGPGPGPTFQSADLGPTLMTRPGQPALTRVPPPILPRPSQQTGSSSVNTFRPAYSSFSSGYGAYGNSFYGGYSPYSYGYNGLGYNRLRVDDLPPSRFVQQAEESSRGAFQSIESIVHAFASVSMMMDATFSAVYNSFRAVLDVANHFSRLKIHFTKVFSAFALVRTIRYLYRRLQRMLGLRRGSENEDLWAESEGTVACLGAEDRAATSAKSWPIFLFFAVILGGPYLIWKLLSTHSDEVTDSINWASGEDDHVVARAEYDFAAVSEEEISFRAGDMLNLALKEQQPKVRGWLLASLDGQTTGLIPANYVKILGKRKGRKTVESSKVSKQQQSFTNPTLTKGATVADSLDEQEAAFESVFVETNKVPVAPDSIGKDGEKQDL

Variant | effect of a mutation on the interaction
MAAAEEGCSVGAEADRELEELLESALDDFDKAKPSPAPPSTTTAPDASGPQKRSPGDTAKDALFASQEKFFQELFDSELASQATAEFEKAMKELAEEEPHLVEQFQKLSEAAGRVGSDMTSQQEFTSCLKETLSGLAKNATDLQNSSMSEEELTKAMEGLGMDEGDGEGNILPIMQSWMQNLLSKDVLYPSLKEITEKYPEWLQSHRESLPPEQFEKYQEQHSVMCKICEQFEAETPTDSETTQKARFEMVLDLMQQLQDLGHPPKELAGEMPPGLNFDLDALNLSGPPGASGEQCLIM [I178W] | decreasing interaction

Variants of: B1
Details: with pex13_human PEX13, Q92968
Remark: another data set of the same source

Variant | effect of a mutation on the interaction
MAAAEEGCSVGAEADRELEELLESALDDFDKAKPSPAPPSTTTAPDASGPQKRSPGDTAKDALFASQEKFFQELFDSELASQATAEFEKAMKELAEEEPHLVEQFQKLSEAAGRVGSDMTSQQEFTSCLKETLSGLAKNATDLQNSSMSEEELTKAMEGLGMDEGDGEGNILPIMQSPMQNLLSKDVLYPSLKEITEKYPEWLQSHRESLPPEQFEKYQEQHSVMCKICEQFEAETPTDSETTQKARFEMVLDLMQQLQDLGHPPKELAGEMPPGLNFDLDALNLSGPPGASGEQCLIM [I178P] | disrupting interaction

Variants of: B1
Details: with pex13_human PEX13, Q92968
Remark: another data set of the same source

Variant | effect of a mutation on the interaction
MAAAEEGCSVGAEADRELEELLESALDDFDKAKPSPAPPSTTTAPDASGPQKRSPGDTAKDALFASQEKFFQELFDSELASQATAEFEKAMKELAEEEPHLVEQFQKLSEAAGRVGSDMTSQQEFTSCLKETLSGLAKNATDLQNSSMSEEELTKAMEGLGMDEGDGEGNILPIMQSIMQNWLSKDVLYPSLKEITEKYPEWLQSHRESLPPEQFEKYQEQHSVMCKICEQFEAETPTDSETTQKARFEMVLDLMQQLQDLGHPPKELAGEMPPGLNFDLDALNLSGPPGASGEQCLIM [L182W] | disrupting interaction

Variants of: B1
Details: with pex13_human PEX13, Q92968
Remark: another data set of the same source

Variant | effect of a mutation on the interaction
MAAAEEGCSVGAEADRELEELLESALDDFDKAKPSPAPPSTTTAPDASGPQKRSPGDTAKDALFASQEKFFQELFDSELASQATAEFEKAMKELAEEEPHLVEQFQKLSEAAGRVGSDMTSQQEFTSCLKETLSGLAKNATDLQNSSMSEEELTKAMEGLGMDEGDGEGNILPIMQSIMQNPLSKDVLYPSLKEITEKYPEWLQSHRESLPPEQFEKYQEQHSVMCKICEQFEAETPTDSETTQKARFEMVLDLMQQLQDLGHPPKELAGEMPPGLNFDLDALNLSGPPGASGEQCLIM [L182P] | decreasing interaction

Variants of: B2
Details: with px11b_human PEX11B

Variant | effect of a mutation on the interaction
MAAAEEGCSVGAEADRELEELLESALDDFDKAKPSPAPPSTTTAPDASGPQKRSPGDTAKDALFASQEKFFQELFDSELASQATAEFEKAMKELAEEEPHLVEQFQKLSEAAGRVGSDMTSQQEFTSCLKETLSGLAKNATDLQNSSMSEEELTKAMEGLGMDEGDGEGNILPIMQSWMQNLLSKDVLYPSLKEITEKYPEWLQSHRESLPPEQFEKYQEQHSVMCKICEQFEAETPTDSETTQKARFEMVLDLMQQLQDLGHPPKELAGEMPPGLNFDLDALNLSGPPGASGEQCLIM [I178W] | disrupting interaction

Variants of: B2
Details: with px11b_human PEX11B
Remark: another data set of the same source

Variant | effect of a mutation on the interaction
MAAAEEGCSVGAEADRELEELLESALDDFDKAKPSPAPPSTTTAPDASGPQKRSPGDTAKDALFASQEKFFQELFDSELASQATAEFEKAMKELAEEEPHLVEQFQKLSEAAGRVGSDMTSQQEFTSCLKETLSGLAKNATDLQNSSMSEEELTKAMEGLGMDEGDGEGNILPIMQSIMQNPLSKDVLYPSLKEITEKYPEWLQSHRESLPPEQFEKYQEQHSVMCKICEQFEAETPTDSETTQKARFEMVLDLMQQLQDLGHPPKELAGEMPPGLNFDLDALNLSGPPGASGEQCLIM [L182P] | disrupting interaction
